For one assay, the target named is HLA-A*02:02. Briefly: IEDB peptide-MHC binding, purified MHC/competitive/radioactivity; ≥ and ≤ were set here for values at or beyond the usual limits of such assays.
For assay [1], the target named is HLA-A*02:06. The description is as above.
In assay [2] the target is HLA-A*02:01. Briefly: IEDB peptide-MHC binding, cellular MHC/competitive/fluorescence; ≥ and ≤ were set here for values at or beyond the usual limits of such assays.
Assay [3] concerns the target HLA-A*68:02. Described as above.
The next assay has as its target HLA-A*02:03. The assay is described as above.
Assay [4] deals with HLA-A*68:02. The assay can be described thus: IEDB peptide-MHC binding, purified MHC/competitive/radioactivity; ≥ and ≤ were set here for values at or beyond the usual limits of such assays.
Assay [5] deals with HLA-A*02:06. The assay can be described thus: IEDB peptide-MHC binding, cellular MHC/competitive/fluorescence; ≥ and ≤ were set here for values at or beyond the usual limits of such assays.
In assay [6] the target is HLA-A*02:01. Briefly: IEDB peptide-MHC binding, purified MHC/competitive/radioactivity; ≥ and ≤ were set here for values at or beyond the usual limits of such assays.
The mark [7] stands for this setting: source organism: Influenza A virus.
The mark [8] stands for this setting: source organism: Mammarenavirus guanaritoense.
Where [9] appears, read: source organism: Vaccinia virus WR.
Where [10] appears, read: source organism: Mammarenavirus choriomeningitidis.
The mark [11] stands for this setting: source organism: Mammarenavirus machupoense.

The values that follow come from the Immune Epitope Database (IEDB).

A word on the IC50: it is the point on the concentration scale where inhibition reaches its midpoint. As for GILHLILWIL, the concentration for half-maximal inhibition (IC50) with HLA-A*02:02 (setting [7]) was found to be 4.52 µM; with HLA-A*02:06 [1] (setting [7]), 2.54 µM; with HLA-A*02:01 [2] (setting [7]), 16.7 µM; with HLA-A*68:02 [3] (setting [7]), 8.03 µM; in the assay with HLA-A*02:03 (setting [7]) it was 7.7 µM.
Take FVETLARSI: the concentration for half-maximal inhibition (IC50) with HLA-A*02:02 (setting [7]) came to 0.382 µM; in the assay with HLA-A*02:06 [1] (setting [7]) it was 4.33 µM; in the assay with HLA-A*02:01 [2] (setting [7]), 5.26 µM; with HLA-A*68:02 [3] (setting [7]) it was 11.7 µM; with HLA-A*02:03 (setting [7]) it was 6.18 µM.
For LCFWSAIFFT, the IC50 with HLA-A*02:02 (setting [8]) is 2.61 µM; with HLA-A*68:02 [4] (setting [8]), 1.82 µM; with HLA-A*02:06 [5] (setting [8]) it was 34.6 µM; in the assay with HLA-A*02:01 [2] (setting [8]), 5.57 µM; in the assay with HLA-A*02:03 (setting [8]), 30.3 µM.
As for TVSSFQDIL, the IC50 with HLA-A*02:02 (setting [7]) was found to be 0.457 µM; with HLA-A*68:02 [4] (setting [7]) it was 0.846 µM; with HLA-A*02:06 [5] (setting [7]) it was 13.8 µM; in the assay with HLA-A*02:01 [2] (setting [7]) it was 40.7 µM; in the assay with HLA-A*02:03 (setting [7]), 8.97 µM.
GARVIWMDA: the IC50 with HLA-A*02:02 (setting [9]) worked out at 4.61 µM; in the assay with HLA-A*02:06 [1] (setting [9]) it was 2.14 µM; in the assay with HLA-A*02:01 [2] (setting [9]), 7.73 µM; with HLA-A*68:02 [3] (setting [9]) it was 12 µM; with HLA-A*02:03 (setting [9]), 9.14 µM.
Take VTTNNLLEQL: the IC50 was found to be 4.69 µM with HLA-A*02:02 (setting [9]); 2.94 µM in the assay with HLA-A*68:02 [4] (setting [9]); 5.91 µM with HLA-A*02:06 [5] (setting [9]); 21.6 µM in the assay with HLA-A*02:01 [2] (setting [9]); 17.9 µM with HLA-A*02:03 (setting [9]).
In the case of NIEIMDKEQL, the IC50 with HLA-A*02:02 (setting [9]) was determined as 3.47 µM; with HLA-A*02:01 [6] (setting [9]) it was 4.66 µM; with HLA-A*68:02 [4] (setting [9]) it was 1.38 µM; with HLA-A*02:06 [5] (setting [9]) it was 5.65 µM; with HLA-A*02:03 (setting [9]) it was 15.5 µM.
On to IASKINNNRI, for which the IC50 in the assay with HLA-A*02:02 (setting [9]) came to 0.732 µM; in the assay with HLA-A*68:02 [4] (setting [9]), 0.163 µM; in the assay with HLA-A*02:06 [5] (setting [9]) it was 9.42 µM; with HLA-A*02:01 [2] (setting [9]), 30.8 µM; with HLA-A*02:03 (setting [9]), 18.5 µM.
For NVSRVVECLT the same measures were 4.66 µM, 0.55 µM, 10 µM, 9.45 µM and 14.3 µM.
In the same order, the values of WLRAKRKPAM are 4.67 µM, 2.86 µM, 11.9 µM, 22.5 µM and 20.1 µM.
In the same order, the values of RTRCKYVGCT are 0.149 µM, 4.69 µM, 11.6 µM, 48.5 µM and 12.3 µM.
Consider TVGMLIYSM, for which the IC50 with HLA-A*02:02 (setting [9]) came to 0.49 µM; with HLA-A*02:01 [6] (setting [9]), 0.809 µM; with HLA-A*68:02 [4] (setting [9]), 1.79 µM; with HLA-A*02:06 [5] (setting [9]) it was 9.18 µM; with HLA-A*02:03 (setting [9]), 6.09 µM.
Take ELPYVGDTSM: the half-maximal inhibitory concentration (IC50) with HLA-A*02:02 (setting [9]) was 4.13 µM; with HLA-A*68:02 [4] (setting [9]) it was 0.913 µM; with HLA-A*02:06 [5] (setting [9]) it was 29.8 µM; with HLA-A*02:01 [2] (setting [9]) it was 13.4 µM; in the assay with HLA-A*02:03 (setting [9]), 14.2 µM.
Regarding DTCLLAISA, the IC50 amounted to 4.33 µM in the assay with HLA-A*02:02 (setting [9]); 0.316 µM with HLA-A*68:02 [4] (setting [9]); 25.2 µM with HLA-A*02:06 [5] (setting [9]); 6.69 µM with HLA-A*02:01 [2] (setting [9]); 6.45 µM with HLA-A*02:03 (setting [9]).
Turning to NQLDSSNKSM, the IC50 worked out at 1.78 µM in the assay with HLA-A*02:02 (setting [9]); 0.635 µM with HLA-A*02:06 [1] (setting [9]); 17.1 µM with HLA-A*02:01 [2] (setting [9]); 52.7 µM with HLA-A*68:02 [3] (setting [9]); 30 µM with HLA-A*02:03 (setting [9]).
On to QAIMDKNIIL, for which the IC50 with HLA-A*02:02 (setting [7]) was determined as 0.937 µM; in the assay with HLA-A*02:01 [6] (setting [7]), 1.02 µM; in the assay with HLA-A*02:06 [5] (setting [7]) it was 13.4 µM; with HLA-A*68:02 [3] (setting [7]), 8.92 µM; with HLA-A*02:03 (setting [7]) it was 11.4 µM.
As to SCDDVVFGI, the IC50 stood at 2.15 µM in the assay with HLA-A*02:02 (setting [10]); 0.306 µM with HLA-A*68:02 [4] (setting [10]); 14.6 µM in the assay with HLA-A*02:06 [5] (setting [10]); 5.61 µM with HLA-A*02:01 [2] (setting [10]); 50.5 µM in the assay with HLA-A*02:03 (setting [10]).
Turning to DVQRTRCKYV, the IC50 with HLA-A*02:02 (setting [9]) amounted to 1.07 µM; with HLA-A*02:01 [6] (setting [9]) it was 1.57 µM; with HLA-A*68:02 [4] (setting [9]), 1.46 µM; with HLA-A*02:06 [5] (setting [9]), 9.51 µM; with HLA-A*02:03 (setting [9]), 6.46 µM.
Turning to PIPMSRLFM, the IC50 with HLA-A*02:02 (setting [9]) was 3.89 µM; with HLA-A*02:06 [5] (setting [9]), 31.4 µM; with HLA-A*68:02 [3] (setting [9]), at least 70 µM; with HLA-A*02:03 (setting [9]), 9.13 µM.
Regarding YTGGYDVSL, the IC50 in the assay with HLA-A*02:02 (setting [9]) came out at 1.99 µM; with HLA-A*02:01 [6] (setting [9]), 3.74 µM; with HLA-A*02:06 [5] (setting [9]), 20.3 µM; in the assay with HLA-A*68:02 [3] (setting [9]), 6.67 µM; in the assay with HLA-A*02:03 (setting [9]), 6.05 µM.
Turning to FNPMIVELA, the half-inhibitory concentration (IC50) was 0.937 µM with HLA-A*02:02 (setting [7]); 1.62 µM with HLA-A*68:02 [4] (setting [7]); 12.6 µM with HLA-A*02:06 [5] (setting [7]); 25.2 µM with HLA-A*02:01 [2] (setting [7]); 11.6 µM with HLA-A*02:03 (setting [7]).
In the case of LNIALVAVSL, the IC50 with HLA-A*02:02 (setting [11]) came to 0.18 µM; in the assay with HLA-A*02:01 [6] (setting [11]), 1.25 µM; with HLA-A*68:02 [4] (setting [11]) it was 0.52 µM; in the assay with HLA-A*02:06 [5] (setting [11]) it was 13.2 µM; in the assay with HLA-A*02:03 (setting [11]), 12.5 µM.
For the sequence CAAMDDFQL, the IC50 was 1.01 µM with HLA-A*02:02 (setting [7]); 2.1 µM with HLA-A*02:06 [1] (setting [7]); 10.9 µM with HLA-A*02:01 [2] (setting [7]); 5.07 µM in the assay with HLA-A*68:02 [3] (setting [7]); 22.8 µM with HLA-A*02:03 (setting [7]).
